Assay results reported in patent US6635450.

B1: cyclin D2-Cdk4 complex (baculovirus produced, co-infected Sf9 cells) (protein)
chain 1: MELLCCEVDPVRRAVPDRNLLEDRVLQNLLTIEERYLPQCSYFKCVQKDIQPYMRRMVATWMLEVCEEQKCEEEVFPLAMNYLDRFLAGVPTPKTHLQLLGAVCMFLASKLKETIPLTAEKLCIYTDNSVKPQELLEWELVVLGKLKWNLAAVTPHDFIEHILRKLPQQKEKLSLIRKHAQTFIALCATDFKFAMYPPSMIATGSVGAAICGLQQDDEVNTLTCDALTELLAKITHTDVDCLKACQEQIEALLLNSLQQFRQEQHNAGSKSVEDPDQATTPTDVRDVDL
chain 2: MAATRYEPVAEIGVGAYGTVYKARDPHSGHFVALKSVRVPNGGAAGGGLPVSTVREVALLRRLEAFEHPNVVRLMDVCATSRTDRDIKVTLVFEHIDQDLRTYLDKAPPPGLPVETIKDLMRQFLSGLDFLHANCIVHRDLKPENILVTSNGTVKLADFGLARIYSYQMALTPVVVTLWYRAPEVLLQSTYATPVDMWSVGCIFAEMFRRKPLFCGNSEADQLGKIFDLIGLPPEDDWPREVSLPRGAFAPRGPRPVQSVVPEMEESGAQLLLEMLTFNPHKRISAFRALQHSYLHKEESDAE
B2: Cdk4 alone (baculoviral, Sf9 lysate) (protein)
chain: B1 chain 2
B3: cyclin D3-Cdk4 complex (baculoviral, co-infected Sf9 cells) (protein)
chain 1: MELLCCEGTRHAPRAGPDPRLLGDQRVLQSLLRLEERYVPRASYFQCVQKEIKPHMRKMLAYWMLEVCEEQRCEEDVFPLAMNYLDRYLSCVPTRKAQLQLLGTVCLLLASKLRETTPLTIEKLCIYTDQAVAPWQLREWEVLVLGKLKWDLAAVIAHDFLALILHRLSLPSDRQALVKKHAQTFLALCATDYTFAMYPPSMIATGSIGAAVLGLGACSMSADELTELLAGITGTEVDCLRACQEQIEAALRESLREAAQTAPSPVPKAPRGSSSQGPSQTSTPTDVTAIHL
chain 2: B1 chain 2
B4: cyclin D1-Cdk4 complex (baculoviral, co-infected Sf9 cells) (protein)
chain 1: MEHQLLCCEVETIRRAYPDTNLLNDRVLRAMLKTEETCAPSVSYFKCVQKEIVPSMRKIVATWMLEVCEEQKCEEEVFPLAMNYLDRFLSLEPLKKSRLQLLGATCMFVASKMKETIPLTAEKLCIYTDNSIRPEELLQMELLLVNKLKWNLAAMTPHDFIEHFLSKMPEADENKQTIRKHAQTFVALCATDVKFISNPPSMVAAGSVVAAMQGLNLGSPNNFLSCYRTTHFLSRVIKCDPDCLRACQEQIEALLESSLRQAQQNVDPKATEEEGEVEEEAGLACTPTDVRDVDI
chain 2: B1 chain 2

What was measured:
[1] = biological target: T1, Kip1 (28-79), 52-amino acid peptide with a C-terminal hexahistidine tag
T1 chain: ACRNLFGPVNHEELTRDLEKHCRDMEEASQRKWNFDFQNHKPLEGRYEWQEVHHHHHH

[2] = biological target: T2, p27 protein, the 27 kD cyclin E-Cdk2 binding protein of Mv1Lu mink epithelial cells (endogenous)
T2 chain: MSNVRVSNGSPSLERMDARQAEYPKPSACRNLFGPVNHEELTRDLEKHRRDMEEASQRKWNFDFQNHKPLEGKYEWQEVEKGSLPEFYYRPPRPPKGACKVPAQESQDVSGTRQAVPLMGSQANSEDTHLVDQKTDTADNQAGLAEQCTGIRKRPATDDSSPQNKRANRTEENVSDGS

[3] = biological target: T3, recombinant mouse Kip1 with a C-terminal hexahistidine sequence (expressed in BL21(DE3) bacteria from pET21a)
T3 chain: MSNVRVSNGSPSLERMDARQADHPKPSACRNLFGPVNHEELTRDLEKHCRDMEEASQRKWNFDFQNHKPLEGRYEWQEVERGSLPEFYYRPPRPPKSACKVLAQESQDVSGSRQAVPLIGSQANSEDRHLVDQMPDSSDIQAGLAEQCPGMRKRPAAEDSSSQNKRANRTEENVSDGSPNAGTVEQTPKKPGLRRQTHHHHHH

| Protein | Rb phosphorylation [1] | activation of Cdk2 by cyclin E in extracts (cyclin E-associated histone H1 kinase activity) [2] | Rb kinase activity (phosphorylation of a GST-Rb fusion product) [3] | lowering of the cyclin E threshold for Cdk2 activation (cyclin E-associated histone H1 kinase activity) [2] |
| --- | --- | --- | --- | --- |
| B1 | inhibited cyclin E-Cdk2 or cyclin D2:Cdk4 less effectively | Addition of cyclin D2-Cdk4 complexes, but neither subunit alone, to extracts from contact inhibited and TGF-β arrested cells allowed cyclin E to activate Cdk2 to a level equivalent to that observed in extracts from proliferating cells | Addition of Kip1 to cyclin E-Cdk2, cyclin A-Cdk2 or cyclin D2-Cdk4 complexes inhibited their ability to phosphorylate a GST-Rb fusion product |  |
| B2 |  | Addition of cyclin D2-Cdk4 complexes, but neither subunit alone, to extracts from contact inhibited and TGF-β arrested cells allowed cyclin E to activate Cdk2 |  |  |
| B3 |  |  |  | Equal amounts of cyclin Di-Cdk4 and cyclin D3-Cdk4 complexes, as estimated by immunoblotting of Sf9 lysates, were much less effective in lowering the cyclin E threshold for Cdk2 activation |
| B4 |  |  |  | Equal amounts of cyclin Di-Cdk4 and cyclin D3-Cdk4 complexes, as estimated by immunoblotting of Sf9 lysates, were much less effective in lowering the cyclin E threshold for Cdk2 activation |
